Measured values published in the supplement of paper PMC7877785.
± gives the uncertainty stated by the source.

Test: self-splicing fitness, log relative to wild type (ln ratio); higher = more splicing; Tetrahymena group I intron in knt gene, E. coli kanamycin selection, DiMSum; sequences stand for … in CUCUCU…GGAGGGAAAAGUUAUCAGGCAUGCACCUGGUAGCUAGUCUUUAAACCAAUAGAUUGCAUCGGUUUAAAAGGCAAGACCGUCAAAUUGCGGGAAAGGGGUCAACAGCCGUUCAGUACCAAGUCUCAGGGGAAACUUUGAGAUGGCCUUGCAAAGGGUAUGGUAAUAAGCUGACGGACAUGGUCCUAACCACGCAGCCAAGUCCUAAGUCAACAGAUCUUCUGUUGAUAUGGAUGCAGUUCACAGACUAAAUGUCGGUCGGGGAAGAUGUAUUCUUCUCAUAAGAUAUAGUCGGACCUCUCCUUAAUGGGAGCUAGCGGAUGAAGUGAUGCAACACUGGAGCCGCUGGGAACUAAUUUGUAUGCGAAAGUAUAUUGAUUAGUUUUGGAGUACUCGUGGUCG
Summary of the method: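 Pooled colonies went to amplicon sequencing on an Illumina HiSeq 2500 after six replicate transformations. The plates were LB agar with 100 μg/mL carbenicillin, 50 μM IPTG and 0.2% rhamnose, with or without 25 μg/mL kanamycin, incubated overnight at 37°C or 30°C. The E. coli BL21(DE3) library had all eight P1ex-region intron nucleotides randomised, the intron placed in the knt kanamycin-resistance gene on pET-22b(+). DiMSum fitness is the error-weighted combination of replicate fold changes, kanamycin against none, normalised to wild type.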

Sequence	self-splicing fitness (ln) (30 °C)	self-splicing fitness (ln) (37 °C)
UUCGAGCAAUAUUACGCGAU	-2.39 ± 0.21	-2.11 ± 0.27
UUCGAGCAAUAUUACGCGGC		-2.29 ± 0.49
UUCGAGCAAUAUUACGGUCC	-1.91 ± 0.39	-1.56 ± 0.43
UUCGAGCAAUAUUACGUAUA	-2.7 ± 0.33	-2.78 ± 0.41
UUCGAGCAAUAUUACGUGUU	-4.05 ± 0.25	-1.72 ± 0.18
UUCGAGCAAUAUUACGUUAC	-3.5 ± 0.48	
UUCGAGCAAUAUUACGUUCU	-1.47 ± 0.15	-0.345 ± 0.16
UUCGAGCAAUAUUACGUUUG	-2.94 ± 0.14	-2.99 ± 0.2
UUCUAGCAAUAUUACGAGGA	-2.56 ± 0.25	-1.4 ± 0.25
UUCUAGCAAUAUUACGAUCA	-1.69 ± 0.23	-0.172 ± 0.18
UUCUAGCAAUAUUACGCCUU	-3.43 ± 0.21	-2.57 ± 0.15
UUCUAGCAAUAUUACGCGCG	-2.24 ± 0.32	-1.05 ± 0.18
UUCUAGCAAUAUUACGCUCA	-0.563 ± 0.15	-0.208 ± 0.19
UUCUAGCAAUAUUACGCUGA	-1.04 ± 0.31	-0.752 ± 0.25
UUCUAGCAAUAUUACGCUUC	-2.8 ± 0.32	-1.96 ± 0.22
UUCUAGCAAUAUUACGGACC	-1.51 ± 0.3	
UUCUAGCAAUAUUACGGCCG	-1.96 ± 0.14	-1.56 ± 0.16
UUCUAGCAAUAUUACGGCGU	-1.72 ± 0.13	-1.2 ± 0.14
UUCUAGCAAUAUUACGGGGC	-3.22 ± 0.32	-2.02 ± 0.26
UUCUAGCAAUAUUACGGUAC	-4.34 ± 0.36	-2.76 ± 0.3
UUCUAGCAAUAUUACGGUAG	-2.29 ± 0.23	-3.15 ± 0.37
UUCUAGCAAUAUUACGUCGA	-1.02 ± 0.13	-0.474 ± 0.15
UUCUAGCAAUAUUACGUCGU	-3.47 ± 0.26	-2.19 ± 0.17
UUCUAGCAAUAUUACGUGUG	-0.91 ± 0.06	-0.542 ± 0.082
UUCUAGCAAUAUUACGUUCU	-3.79 ± 0.46	-1.26 ± 0.18

Sequence	self-splicing fitness (ln) (30 °C)	self-splicing fitness (ln) (37 °C)
UUCUAGCAAUAUUACGUUGA	-3.03 ± 0.22	-1.47 ± 0.18
UUGAAGCAAUAUUACGACGG	0.0862 ± 0.13	0.756 ± 0.17
UUGAAGCAAUAUUACGAGAU	-3.15 ± 0.18	-2.87 ± 0.23
UUGAAGCAAUAUUACGCAAU	-2.4 ± 0.21	-2.02 ± 0.16
UUGAAGCAAUAUUACGCCUG	0.189 ± 0.11	0.0665 ± 0.12
UUGAAGCAAUAUUACGCCUU	-2.96 ± 0.13	-1.53 ± 0.14
UUGAAGCAAUAUUACGCGAC	-2.19 ± 0.18	-1.51 ± 0.29
UUGAAGCAAUAUUACGCGAG	-0.254 ± 0.086	0.721 ± 0.12
UUGAAGCAAUAUUACGCGCU	-1.72 ± 0.093	-1 ± 0.13
UUGAAGCAAUAUUACGCGGC	-1.63 ± 0.13	-0.671 ± 0.19
UUGAAGCAAUAUUACGCGUG	-0.176 ± 0.07	-0.123 ± 0.099
UUGAAGCAAUAUUACGGAAG	-1.12 ± 0.14	-0.383 ± 0.2
UUGAAGCAAUAUUACGGAUC	-0.951 ± 0.15	-0.501 ± 0.18
UUGAAGCAAUAUUACGGCCC	-3.04 ± 0.4	-0.425 ± 0.2
UUGAAGCAAUAUUACGGGAA	-0.195 ± 0.11	-0.634 ± 0.15
UUGAAGCAAUAUUACGGGCC		-2.14 ± 0.42
UUGAAGCAAUAUUACGGUCG	0.0283 ± 0.088	0.283 ± 0.1
UUGAAGCAAUAUUACGGUGA	-0.275 ± 0.08	-0.469 ± 0.09
UUGAAGCAAUAUUACGGUUG	-0.894 ± 0.053	-0.569 ± 0.07
UUGAAGCAAUAUUACGUUCU	0.25 ± 0.084	-0.378 ± 0.1
UUGAAGCAAUAUUACGUUGU	-2.87 ± 0.11	-2.24 ± 0.16
UUGCAGCAAUAUUACGACGU	-3.09 ± 0.29	-1.11 ± 0.14
UUGCAGCAAUAUUACGACUA	0.37 ± 0.1	0.519 ± 0.12
UUGCAGCAAUAUUACGACUU	-0.403 ± 0.1	-0.588 ± 0.08
UUGCAGCAAUAUUACGAGAU	-3.6 ± 0.34	-2.64 ± 0.36

Sequence	self-splicing fitness (ln) (30 °C)	self-splicing fitness (ln) (37 °C)
UUGCAGCAAUAUUACGAUCU	-2.34 ± 0.22	-1.78 ± 0.21
UUGCAGCAAUAUUACGCAGA	-2.12 ± 0.11	-1.95 ± 0.096
UUGCAGCAAUAUUACGCAGU		-2.71 ± 0.39
UUGCAGCAAUAUUACGCAUU	-1.92 ± 0.19	-1.42 ± 0.18
UUGCAGCAAUAUUACGCGAA	-0.925 ± 0.16	-0.846 ± 0.14
UUGCAGCAAUAUUACGCGGU	-3.63 ± 0.35	
UUGCAGCAAUAUUACGCUAG	-2.94 ± 0.23	-2.44 ± 0.24
UUGCAGCAAUAUUACGGAAU	-2.83 ± 0.3	
UUGCAGCAAUAUUACGGACU	-1.3 ± 0.18	-1.7 ± 0.29
UUGCAGCAAUAUUACGGAGG	-2.94 ± 0.16	-2.73 ± 0.24
UUGCAGCAAUAUUACGUACG	-0.368 ± 0.08	0.233 ± 0.1
UUGCAGCAAUAUUACGUCAC		-1.35 ± 0.29
UUGCAGCAAUAUUACGUCUG	-3.23 ± 0.16	-2.32 ± 0.18
UUGCAGCAAUAUUACGUGAA	-1.12 ± 0.069	-0.162 ± 0.086
UUGCAGCAAUAUUACGUGCA	-2.15 ± 0.13	-1.27 ± 0.12
UUGCAGCAAUAUUACGUUCG	-1.16 ± 0.049	-0.636 ± 0.071
UUGGAGCAAUAUUACGAAUG	-3.5 ± 0.2	-2.31 ± 0.21
UUGGAGCAAUAUUACGAAUU	-1.68 ± 0.31	-0.925 ± 0.41
UUGGAGCAAUAUUACGACAC		-2.36 ± 0.37
UUGGAGCAAUAUUACGACGA	-0.765 ± 0.14	0.309 ± 0.21
UUGGAGCAAUAUUACGACUG	-0.79 ± 0.46	0.294 ± 0.47
UUGGAGCAAUAUUACGAGGG	-2.34 ± 0.22	-2.6 ± 0.49
UUGGAGCAAUAUUACGAUUC		-1.85 ± 0.32
UUGGAGCAAUAUUACGAUUG		-2.34 ± 0.41
UUGGAGCAAUAUUACGCACA	-0.871 ± 0.32	

Sequence	self-splicing fitness (ln) (30 °C)	self-splicing fitness (ln) (37 °C)
UUGGAGCAAUAUUACGCCCU		-1.44 ± 0.46
UUGGAGCAAUAUUACGCCUG	-2.22 ± 0.2	-1.2 ± 0.23
UUGGAGCAAUAUUACGCGAU	-2.54 ± 0.33	-0.423 ± 0.35
UUGGAGCAAUAUUACGCUAG	-2.56 ± 0.23	-1.64 ± 0.2
UUGGAGCAAUAUUACGGAGG	-2.92 ± 0.24	-2.01 ± 0.36
UUGGAGCAAUAUUACGGAUA	-2.85 ± 0.21	-2.04 ± 0.23
UUGGAGCAAUAUUACGGUUA	-2.08 ± 0.45	-1.49 ± 0.25
UUGGAGCAAUAUUACGGUUG	-3.97 ± 0.28	-3.38 ± 0.31
UUGGAGCAAUAUUACGUCGG	-2.64 ± 0.26	-0.784 ± 0.19
UUGGAGCAAUAUUACGUCUG	-2.66 ± 0.17	-0.914 ± 0.22
UUGGAGCAAUAUUACGUGCU		-2.64 ± 0.34
UUGUAGCAAUAUUACGAACA	-0.432 ± 0.16	-0.256 ± 0.15
UUGUAGCAAUAUUACGAGUA	-2.13 ± 0.31	-1.22 ± 0.29
UUGUAGCAAUAUUACGAUAG	-1.52 ± 0.2	-1.16 ± 0.17
UUGUAGCAAUAUUACGCAAC	-2.57 ± 0.41	
UUGUAGCAAUAUUACGCAAU	-2.98 ± 0.34	
UUGUAGCAAUAUUACGCAUA	-1.81 ± 0.16	-1.31 ± 0.15
UUGUAGCAAUAUUACGCGAA	-1.02 ± 0.21	-1.73 ± 0.28
UUGUAGCAAUAUUACGCGAG	-1.17 ± 0.11	-0.735 ± 0.099
UUGUAGCAAUAUUACGCGUU	-2.56 ± 0.23	-1.64 ± 0.33
UUGUAGCAAUAUUACGCUGA	-1.09 ± 0.18	-1.05 ± 0.2
UUGUAGCAAUAUUACGGACG	-1.33 ± 0.19	-0.721 ± 0.19
UUGUAGCAAUAUUACGGAGG	-3.76 ± 0.42	-1.87 ± 0.35
UUGUAGCAAUAUUACGGGCA	-1.8 ± 0.21	-0.65 ± 0.2
UUGUAGCAAUAUUACGUACG	-1.24 ± 0.12	-0.138 ± 0.16
